Target: T1, human CD62P (P-Selectin) on the surface of activated platelets (human, UniProt P16109 42-830)
T1 sequence: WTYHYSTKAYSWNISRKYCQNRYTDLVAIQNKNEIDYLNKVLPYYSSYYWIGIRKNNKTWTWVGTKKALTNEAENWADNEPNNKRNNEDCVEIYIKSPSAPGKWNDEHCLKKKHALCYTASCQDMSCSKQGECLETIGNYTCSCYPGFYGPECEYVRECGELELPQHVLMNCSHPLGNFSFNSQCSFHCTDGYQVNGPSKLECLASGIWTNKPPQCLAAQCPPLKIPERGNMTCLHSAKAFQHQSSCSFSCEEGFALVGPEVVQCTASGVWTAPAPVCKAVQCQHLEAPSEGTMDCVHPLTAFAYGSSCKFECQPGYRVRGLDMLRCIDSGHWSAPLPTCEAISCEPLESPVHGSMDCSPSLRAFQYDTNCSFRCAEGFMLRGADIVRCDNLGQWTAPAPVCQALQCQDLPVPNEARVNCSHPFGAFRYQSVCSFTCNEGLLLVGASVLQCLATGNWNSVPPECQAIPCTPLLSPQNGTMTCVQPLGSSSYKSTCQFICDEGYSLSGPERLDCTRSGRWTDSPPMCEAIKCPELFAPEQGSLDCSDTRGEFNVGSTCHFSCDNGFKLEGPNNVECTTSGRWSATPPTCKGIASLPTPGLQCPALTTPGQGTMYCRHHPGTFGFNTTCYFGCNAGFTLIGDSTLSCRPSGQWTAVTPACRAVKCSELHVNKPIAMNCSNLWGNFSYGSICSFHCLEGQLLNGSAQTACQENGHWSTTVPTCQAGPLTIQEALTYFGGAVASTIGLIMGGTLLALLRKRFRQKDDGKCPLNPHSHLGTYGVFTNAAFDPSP
Experiment: FACS on activated human platelets; sample incubated without Thrombin
Method: In short, blood from healthy donors was drawn by venipuncture of the antecubital vein. […] Platelet preparations were produced by making a standard Platelet Rich Plasma (PRP). Here, anti-coagulated whole blood was centrifuged (200 g for 15 minutes) without brake. […] Platelets were washed and prepared for staining. […] 50-100,000 cells were used per well.

B1: EP-FpA-PB1.3 mAb construct, incubated without Thrombin (uncleaved) (antibody, human IgG4, V domains shown)
VH: EAQLQQSGPELVEPGASVKVSCKASGYTFTNYVMHWVKQKPGQGLEWIGFINPSNDGPKYNERFKNKATLTSDKSSSTAYMELSSLTSEVSAVYFCARARPGFDWYFDVWGAGTTVTVSS
VL: DIVMTQSQKFMSTSVGDRVSVTCKASQNVATNVVWYQQRPGQSPKALIYTASYRFSGVPERFSGSGSGTDFTLTITNVQSEDLADYFCQQYNNYPYTFGGGTKVEIQR
notes: also called Sample 2
  binding result: no binding

Reference: patent US20130052192A1 (Novo Nordisk, published 2013)
